Our source for the Kd values is patent US20110143953A1.

In experiment [1] the target is transferrin, P02787. Kind of experiment: SPR.
In experiment [2] the target is AKT1 (as used in SPR), P31749. The experiment is described as follows: SPR.
The target in experiment [3] is transferrin, P02787. The experiment is described as follows: SPR, transferrin immobilized, Kd from kinetics.

Chain of transferrin, P02787 (P02787 20-698 limits assumed): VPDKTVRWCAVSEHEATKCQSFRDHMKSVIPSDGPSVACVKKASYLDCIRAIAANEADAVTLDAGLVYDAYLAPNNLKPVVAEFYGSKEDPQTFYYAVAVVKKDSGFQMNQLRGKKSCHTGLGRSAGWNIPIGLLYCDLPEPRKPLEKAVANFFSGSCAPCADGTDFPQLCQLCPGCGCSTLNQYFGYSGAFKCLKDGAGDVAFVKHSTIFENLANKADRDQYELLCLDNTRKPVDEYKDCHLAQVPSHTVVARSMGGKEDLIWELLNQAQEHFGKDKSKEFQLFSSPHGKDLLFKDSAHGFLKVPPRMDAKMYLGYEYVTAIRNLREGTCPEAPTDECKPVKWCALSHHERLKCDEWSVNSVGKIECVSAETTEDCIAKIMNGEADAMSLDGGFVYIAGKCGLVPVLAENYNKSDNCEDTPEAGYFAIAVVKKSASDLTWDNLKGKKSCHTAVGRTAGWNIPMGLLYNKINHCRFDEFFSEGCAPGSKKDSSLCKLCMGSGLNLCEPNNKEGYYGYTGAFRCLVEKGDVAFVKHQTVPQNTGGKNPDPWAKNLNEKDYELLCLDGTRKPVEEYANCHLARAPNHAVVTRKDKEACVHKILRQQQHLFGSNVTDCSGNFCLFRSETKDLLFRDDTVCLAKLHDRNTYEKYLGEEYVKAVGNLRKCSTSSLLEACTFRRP
Chain of AKT1 (as used in SPR), P31749 (P31749 whole entry): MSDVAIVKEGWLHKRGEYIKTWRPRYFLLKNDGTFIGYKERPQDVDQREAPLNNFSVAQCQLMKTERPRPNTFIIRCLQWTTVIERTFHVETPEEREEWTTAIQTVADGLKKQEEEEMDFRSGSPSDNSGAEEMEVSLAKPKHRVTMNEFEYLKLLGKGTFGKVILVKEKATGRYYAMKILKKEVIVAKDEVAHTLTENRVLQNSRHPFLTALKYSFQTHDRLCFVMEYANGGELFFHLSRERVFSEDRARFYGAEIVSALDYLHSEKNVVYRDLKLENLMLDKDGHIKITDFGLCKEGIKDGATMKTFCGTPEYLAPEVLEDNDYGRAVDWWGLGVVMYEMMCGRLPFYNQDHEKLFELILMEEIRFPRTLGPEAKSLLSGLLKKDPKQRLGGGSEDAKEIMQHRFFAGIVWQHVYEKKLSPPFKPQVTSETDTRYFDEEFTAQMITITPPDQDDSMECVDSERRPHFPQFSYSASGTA

B1: SYN23-26 (designed binder)
peptide 1: FRGWAHIFFGPHVIYRGGSG
peptide 2: AHKVVPQRQIRHAYNRYGSG
modifications: not fully specified; C-terminal glycine joined to one of the two amines (alpha or epsilon) of a lysine linker; chain 1 pos 20 and chain 2 pos 20: the C-terminal Gly of each 20-mer is joined to the alpha or the epsilon amine of one branching lysine (about 1 nm spacing). The lysine is followed by a C-terminal cysteine whose thiol is biotinylated for the array. The Lys-Cys core is left out of the …
As to B1, the results for the Kd in experiment [1], in experiment [2] and in experiment [3] were 141 nM, 1 nM and 150 nM, respectively.
